Data set [1] addresses T1, AUF1 p37 C207E (UniProt Q14103-4 1-287, C207E). Briefly: EMSA. In general terms: A gel shift assay detects complexes by their altered migration in electrophoresis.
Data set [2] concerns the target HILI (hHILI) (human, UniProt Q8TC59 1-973). Briefly: single-molecule fluorescence.
For data set [3], the target named is AGO2 (hAGO2) (human, UniProt Q9UKV8 1-859). Put plainly: single-molecule fluorescence.
Data set [4] has as its target T1, AUF1 p37 C207E. Briefly: fluorescence anisotropy.
Data set [5] addresses AUF1 p37 (UniProt Q14103-4 1-287). Briefly: fluorescence anisotropy.
The target in data set [6] is AUF1 p42 (UniProt Q14103-2 1-336). Briefly: fluorescence anisotropy. A general note: Fluorescence polarisation rises when a labelled molecule tumbles more slowly, as on binding a larger partner.

HILI (hHILI), sequence (Q8TC59 whole entry): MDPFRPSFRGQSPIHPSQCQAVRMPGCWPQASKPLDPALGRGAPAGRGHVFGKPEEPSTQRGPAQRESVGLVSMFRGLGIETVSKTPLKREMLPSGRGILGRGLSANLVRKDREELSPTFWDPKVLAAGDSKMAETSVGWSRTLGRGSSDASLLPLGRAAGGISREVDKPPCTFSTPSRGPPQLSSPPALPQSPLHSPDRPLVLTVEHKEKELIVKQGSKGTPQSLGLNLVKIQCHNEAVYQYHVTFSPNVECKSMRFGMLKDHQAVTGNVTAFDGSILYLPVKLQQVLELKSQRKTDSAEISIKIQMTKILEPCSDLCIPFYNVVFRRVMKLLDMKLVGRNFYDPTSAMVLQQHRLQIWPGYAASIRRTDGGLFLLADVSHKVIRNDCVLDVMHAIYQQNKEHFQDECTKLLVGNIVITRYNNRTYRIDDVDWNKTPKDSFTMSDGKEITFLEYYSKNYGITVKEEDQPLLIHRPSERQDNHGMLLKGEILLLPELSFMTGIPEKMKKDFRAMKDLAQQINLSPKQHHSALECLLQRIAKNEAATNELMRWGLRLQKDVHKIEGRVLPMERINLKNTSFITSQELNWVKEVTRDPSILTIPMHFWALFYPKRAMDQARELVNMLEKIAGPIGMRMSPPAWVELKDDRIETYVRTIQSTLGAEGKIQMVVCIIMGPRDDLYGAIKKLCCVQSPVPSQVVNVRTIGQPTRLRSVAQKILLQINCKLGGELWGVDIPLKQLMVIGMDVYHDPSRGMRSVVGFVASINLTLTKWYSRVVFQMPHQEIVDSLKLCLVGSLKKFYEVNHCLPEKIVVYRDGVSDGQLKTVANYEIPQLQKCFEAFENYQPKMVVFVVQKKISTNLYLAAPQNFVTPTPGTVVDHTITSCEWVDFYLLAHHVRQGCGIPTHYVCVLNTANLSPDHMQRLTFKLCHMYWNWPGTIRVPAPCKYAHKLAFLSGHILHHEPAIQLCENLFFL
AGO2 (hAGO2), sequence (Q9UKV8 whole entry): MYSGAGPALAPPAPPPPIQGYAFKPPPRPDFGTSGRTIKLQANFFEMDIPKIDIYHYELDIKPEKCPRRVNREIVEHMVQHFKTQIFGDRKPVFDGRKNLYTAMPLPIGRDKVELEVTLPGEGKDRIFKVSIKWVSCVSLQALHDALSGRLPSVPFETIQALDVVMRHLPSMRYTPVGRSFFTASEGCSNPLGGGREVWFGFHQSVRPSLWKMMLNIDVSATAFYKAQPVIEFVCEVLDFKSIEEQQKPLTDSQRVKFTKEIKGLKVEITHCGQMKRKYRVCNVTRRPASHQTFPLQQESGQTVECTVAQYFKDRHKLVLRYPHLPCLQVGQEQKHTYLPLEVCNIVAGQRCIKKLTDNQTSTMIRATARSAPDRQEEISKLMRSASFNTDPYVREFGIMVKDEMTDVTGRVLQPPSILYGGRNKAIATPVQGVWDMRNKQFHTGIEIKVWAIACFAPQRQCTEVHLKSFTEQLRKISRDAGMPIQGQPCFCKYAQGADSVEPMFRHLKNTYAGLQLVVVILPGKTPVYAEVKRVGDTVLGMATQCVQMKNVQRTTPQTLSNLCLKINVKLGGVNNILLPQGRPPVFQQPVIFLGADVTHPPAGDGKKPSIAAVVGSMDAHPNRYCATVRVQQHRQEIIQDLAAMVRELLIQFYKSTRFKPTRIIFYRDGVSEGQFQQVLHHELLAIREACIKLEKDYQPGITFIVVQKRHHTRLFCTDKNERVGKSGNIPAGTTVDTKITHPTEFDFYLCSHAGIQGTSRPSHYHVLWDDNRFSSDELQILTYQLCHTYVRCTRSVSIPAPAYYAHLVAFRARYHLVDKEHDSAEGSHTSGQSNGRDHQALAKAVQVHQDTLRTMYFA

Take UGAGGUAGUAGGUUGUGUGGUU (ssRNA) [let-7b (32P)]: the binding result in data set [1] was “no binding”.

Turning to UGAGGUAGUAGGUUGUGUGGUU (ssRNA, amino-modifier C6 U at position 18 (iAmMC6)) [Cy5-let-7b (internal)], the binding result in data set [2] is given as “no binding”; in data set [3] it was “binds”.

As for CUAUACAACCUACUGCCUUCCC (ssRNA) [let-7b* (32P or 3' Fl)], in data set [1], the binding result is on record as “no binding”.

For CCCCUGGCUCACAAAUACCUUAUUUAUUUAUUUAG (ssRNA) [canonical AU-rich element], the binding result in data set [1] was “no binding”.

By Kd is commonly meant the concentration at which binding is half-saturated. On to UGAGGUAGUAGGUUGUGUGGUU (ssRNA) [let-7b (Fl)], for which, in data set [4], the binding result is “no binding”. The Kd in data set [5] amounted to 5.9 nM; in data set [6], 9.7 nM.

Values taken from paper PMC4536308.
